Laboratory results: patent publication US20230192840A1

Tests used:
[1] = target: human Claudin18.2 (human) (UniProt P56856); experiment: cell-based or functional assay
[2] = target: human Claudin18.2 (human) (UniProt P56856); experiment: flow cytometry (IntelliCyt) on Ba/F3-Claudin 18.2 cells

| Binder | ADCC EC50 [1] | ADCC Max killing rate % [1] | Max MFI [2] |
| --- | --- | --- | --- |
| humanized antibody 1E9.2-hz15 (antibody, human IgG1, kappa, V domains shown) VH: EVQLVESGGGLVKPGGSLRLSCAASGFSFSNSAMSWVRQAPGKGLEWVSTISSGDSYTYYADSVKGRFTISRDNAKNSLYLQMNSLRAEDTAVYYCARQGYGNALDYWGQGTLVTVSS VL: DIVMTQTPLSLPVTPGEPASISCKSSQSLLNSGNQKNYLTWYLQKPGQSPQLLIYWSSTRESGVPDRFSGSGSGTDFTLKISRVEAEDFGVYYCQNDYYYPLTFGGGTKVEIKR | 0.08 µg/mL | 66.2% | 8.99e+06 MFI |
| humanized antibody 1E9.2-hz17 (antibody, human IgG1, kappa, V domains shown) VH: EVQLVESGGGLVKPGGSLRLSCAASGFSFSNSAMSWVRQAPGKGLEWVSTISSGDSYTYYADSVKGRFTISRDNAKNSLYLQMNSLRAEDTAVYYCARQGYGNALDYWGQGTLVTVSS VL: DIVMTQTPLSLPVTPGEPASISCKSSQSLLQSGNGKNYLTWYLQKPGQSPQLLIYWSSTRESGVPDRFSGSGSGTDFTLKISRVEAEDFGVYYCQNDYYYPLTFGGGTKVEIKR | 0.113 µg/mL | 59.6% | 5.9e+06 MFI |
